In the supplement of paper PMC11780869:

Test system: Bacillus subtilis
Experiment: cleaved RNA product abundance (RNA/gDNA barcode ratio) relative to median wild-type variant (ratio to wild type); higher = more accumulation of the downstream cleavage product
Method in brief: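 Truncated aprE or tetM reporter mRNAs with barcoded RNase Y cleavage-site windows, mutagenized from oligos at a 9% error rate, sat in the B. subtilis chromosome. Cells grew in LB at 37°C from OD600 0.0003 to 0.3. Gel-selected cleaved RNA was reverse transcribed and its barcodes sequenced with those from genomic DNA, collapsing by UMI. Cleaved product abundance equals the RNA:gDNA barcode ratio per construct over the median construct with the unmutated site.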

[1] = experiment (reporter, strain, medium): exp 8a: truncated aprE reporter, strain BJT201 with 2% xylose (RNase J1 expressed), cleavage site: glnRA (positions -5 to +31 mutated)
[2] = experiment (reporter, strain, medium): exp 4a: truncated aprE reporter, strain BJT201 with 2% xylose (RNase J1 expressed), cleavage site: cggR-gapA (positions -7 to +36 mutated)
[3] = experiment (reporter, strain, medium): exp 2b: truncated aprE reporter, strain BJT200, cleavage site: cggR-gapA (positions -7 to +36 mutated)

Sequence | cleaved RNA product abundance [1] | cleaved RNA product abundance [2] | cleaved RNA product abundance [3]
CGACATGTCCCGCTTCTTTCATTAGTCCGTTAGCAACTGTTTTACTATATACATTTACCTTTTAAGAGGAGGAAT | 0.548 | – | –
ACAGACGAAGGAGCCGCAAAGAATTTATTAAGGGATGAATAATCCCTCAATATAATTATCTCTCACTTATTTAAA | – | 0.354 | –
ACAGACGAAGGAGCCGCAAAGAATTTACTAAGGGATGAATAATCCCTCAATATAAATATCTCTCACTTATTTAAA | – | 0.31 | 0.251
CGACATGTCCCGCTTCTTTCATTAATCCGTTATCAACTGTTTTGCTATATACATTTCCCTTTTAAGAGGAGGAAT | 0.124 | – | –
ACAGACGAAGGAGCCGCAAAGAAGTTATTAAGGGATGAATAATCCCTCAAAATAAAAATCTCTCACTTATTTAAA | – | 0.393 | –
ACAGACGAAGGAGCCGCAAAGACGTTATTAAGGGATGAATAATCCCTCAATATAGATATCTCTCACTTATTTAAA | – | 0.456 | –
CGACATGTCCCGCTTCTTTCATTACTCCGTTAGCAACTGCTTTGCTATATACATTTACCTTTTAAGAGGAGGAAT | 0.597 | – | –
ACAGACGAAGGAGCCGCGAAGAAGTTATTAAGGTATGAATAATCCCTCAATATAAATATCTCTCACTTATTTAAA | – | 0.143 | 0.117
ACAGACGAAGGAGCCGCAAAGAAGCTATTAAGCGATGAATAATCCCTCAATATAAATATCTCTCACTTATTTAAA | – | 0.0691 | –
ACAGACGAAGGAGCCGCAAAGAAGTTATTAAGTGATGAATAATCCCTCAATATATATATCTCTCACTTATTTAAA | – | 0.107 | 0.115
ACAGACGAAGGAGCCGCAAAGAAGTCAATAAGGGATGAATAATCCCTCAATATAAATATCTCTCACTTATTTAAA | – | 0.284 | –
ACAGACGAAGGAGCCGCAAAAAAGTTATTAAGAGATGAATAATCCGTCAATATAAATATCTCTCACTTATTTAAA | – | 0.0894 | –
ACAGACGAAGGAGCCGCAGAGAAGTTATTAATGGATGAATAATCCCTCAATATAAATATCTCTCACTTATTTAAA | – | 0.184 | –
CGACATGTCCCGCTTCTTTCATTAATCCGTTAACAACTGTTTGGCTATATACATTTACCTTTTAAGAGGAGGAAT | 0.159 | – | –
CGACATGTCCCGCTTCTTTCATTAATCCGTTATCAACTGTTTTGCTATATATATTTACCTTTTAAGAGGAGGAAT | 0.288 | – | –
ACAGACGAAGGAGCCGCAAAGAAGTTATTAAGGGATGAAGCATCCCTCAATATAAATATCTCTCACTTATTTAAA | – | 0.748 | –
ACAGACGAAGGAGCCGCAAAGAAGTTATTAAGGGATCAAAAATCCCTCAATATAAATATCTCTCACTTATTTAAA | – | 1.17 | 0.804
ACAGACGAAGGAGCCGCAAAGACGCTATTAAGGGATGAATAATCCCTCAATATAAATATCTCTCACTTATTTAAA | – | – | 0.548
ACAGACGAAGGAGCCGCAAAGAAGTTATTCATGGATGAATAATCCCTCAATATAAATATCTCTCACTTATTTAAA | – | 0.137 | –
ACAGACGAAGGAGCCGCAAAGTAGTTATTAAGAGATGAATAATCCCTCAATATAAATATCTCTCACTTATTTAAA | – | 0.124 | 0.126
CGACATGTCCCGCTTCTTTCATTAATCAGTTGGCAACTGTTTTGCTATATACATTTACCTTTTAAGAGGAGGAAT | 0.497 | – | –
ACAGACGAAGGAGCCGCAAAGAAGTTATTAAGGGATGAATAATCCATCAATATAAGTATCTCTCACTTATTTAAA | – | 0.0774 | –
ACAGACGAAGGAGCCGCAAAGAAGTTAATAAGGGATGAATAATCCTTCAATATAAATATCTCTCACTTATTTAAA | – | 0.237 | 0.185
ACAGACGAAGGAGCCGCAAAGAAGTTATTAAGGGATGAATAATCGCTCATTATAAATATCTCTCACTTATTTAAA | – | – | 0.0605
ACAGACGAAGGAGCCGCAAAGAAGTCATTAAGGGACGAATAATCCCTCAATATAAATATCTCTCACTTATTTAAA | – | 0.154 | –
CGACATGTCCCGCTTCTTTCATTAATCCGTTAGCAACTGTTTTGTTATAAACATTTACCTTTTAAGAGGAGGAAT | 0.322 | – | –
